Data on two substances can be found in US20170107290A1.

The target in this experiment is human Axl on MDA-MB-231 cells (human) (UniProt P30530).
Chain of UniProt P30530 (P30530 26-894 Q764R limits assumed): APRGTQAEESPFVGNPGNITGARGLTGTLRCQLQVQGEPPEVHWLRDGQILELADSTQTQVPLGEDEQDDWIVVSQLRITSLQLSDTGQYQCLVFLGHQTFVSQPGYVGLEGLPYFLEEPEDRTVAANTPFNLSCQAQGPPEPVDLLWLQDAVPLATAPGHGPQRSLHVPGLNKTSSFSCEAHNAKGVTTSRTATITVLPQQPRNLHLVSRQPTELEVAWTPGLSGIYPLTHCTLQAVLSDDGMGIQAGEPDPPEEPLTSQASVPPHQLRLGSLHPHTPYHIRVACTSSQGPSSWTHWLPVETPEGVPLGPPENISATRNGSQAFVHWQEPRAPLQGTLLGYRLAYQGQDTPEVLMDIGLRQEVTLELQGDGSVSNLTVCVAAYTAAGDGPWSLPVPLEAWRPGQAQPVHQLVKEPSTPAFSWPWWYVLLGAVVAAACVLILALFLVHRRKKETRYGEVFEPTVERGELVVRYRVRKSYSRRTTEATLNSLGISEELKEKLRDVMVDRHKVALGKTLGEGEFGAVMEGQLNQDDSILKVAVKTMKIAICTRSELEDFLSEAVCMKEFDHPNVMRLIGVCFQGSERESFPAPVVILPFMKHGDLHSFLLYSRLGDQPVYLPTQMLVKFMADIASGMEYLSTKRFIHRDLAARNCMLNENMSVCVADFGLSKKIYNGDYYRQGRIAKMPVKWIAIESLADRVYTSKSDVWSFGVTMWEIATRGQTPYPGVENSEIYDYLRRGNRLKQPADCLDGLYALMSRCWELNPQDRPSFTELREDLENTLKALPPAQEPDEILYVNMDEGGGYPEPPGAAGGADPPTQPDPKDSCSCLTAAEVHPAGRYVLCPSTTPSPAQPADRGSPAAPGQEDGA

As for Control SAP, the EC50 (pM), concentration leading to 50% cell killing, XTT/PMS viability of MDA-MB-231 cells after 72 h [table] is 4080 pM. For Saporin the value was 79800 pM.
